Reference: patent US20210147558A1 (OSE IMMUNOTHERAPEUTICS, published 2021)

Target: T1, human CMKLR1 (Chemokine-like receptor 1) (human, UniProt Q99788 1-373)
T1 sequence: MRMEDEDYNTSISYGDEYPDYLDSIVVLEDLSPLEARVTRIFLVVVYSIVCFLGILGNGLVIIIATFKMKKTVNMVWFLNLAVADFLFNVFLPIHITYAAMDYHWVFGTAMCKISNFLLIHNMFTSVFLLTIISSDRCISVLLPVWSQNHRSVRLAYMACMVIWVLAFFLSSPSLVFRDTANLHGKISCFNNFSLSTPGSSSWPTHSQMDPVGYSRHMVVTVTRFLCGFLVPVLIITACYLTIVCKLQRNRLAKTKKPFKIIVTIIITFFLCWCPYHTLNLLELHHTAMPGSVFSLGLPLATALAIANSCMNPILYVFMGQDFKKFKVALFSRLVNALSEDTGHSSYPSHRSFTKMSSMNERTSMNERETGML
Experiment: cell-based or functional assay

IC50 (read off the curve) of the partial decrease (about one fifth); 2G1 with chemerin 6 nM (circles), beta-arrestin recruitment, CHO-K1 CMKLR1 cells: ~10 nM | IC50 (read off the curve) of the partial decrease (about one third); 2G1 with chemerin 2 nM (diamonds), beta-arrestin recruitment, CHO-K1 CMKLR1 cells: ~20 nM
B1: anti-CMKLR1 antibody clone 2G1 (antibody, V domains shown)
VH: EVQLVASGGGLVQPGGSLKLSCAASGFTFSSYGMSWVRQTPDRRLELVATINRYGGSTYYPDSVKGRFTISRDNAKNTLYLQMSSLKSEDTAMYYCPRLIYYGNEGDSWGQGTTLTVSS
VL: QIVLTQSPAIMSASPGEKVTMTCSASSSVSFMHWYQQKSGTSPKRWIYDTTKLTSGVPARFSGSGSGTFYSLTISSMEAEDAATYYCQQWNSKPPLTFGPGTKLELKR
